Publication PMC12901202
pKd: −log10 of the molar value.

Target: SARS-CoV-2 JN.1 RBD, biotinylated (SARS-CoV-2) (UniProt P0DTC2)
Assay: BLI; […]; 300 s association, 300 s dissociation; 10x kinetics buffer; […]; global fit, 1:1 model; […]

Substance: TRI2-2 homotrimeric miniprotein inhibitor (designed binder)
- pKd: 8.21
- koff: 0.00175 s⁻¹
- kon: 282000 M⁻¹ s⁻¹
